Measured values reported in patent US20130012916A1.
Several values for one entry are separate records, joined by “and”; a condition that tells them apart may be missing. Equal entries are not always repeated.

Experiments:
[1] = biological target: vWF A1-domain (UniProt P04275); test: SPR (Biacore 3000), vWF A1-domain on CM5 chip, parallel line analysis; second of two independent analyses
[2] = biological target: vWF A1-domain (UniProt P04275); test: SPR (Biacore 3000), vWF A1-domain on CM5 chip, parallel line analysis
[3] = biological target: vWF A1-domain (UniProt P04275); test: SPR (Biacore 3000), vWF A1-domain on CM5 chip, parallel line analysis; first of two independent analyses

- relative potency versus reference (non lyophilised, stored at -70 C) [1]: 96.1%
- relative potency versus reference (non lyophilised, stored at -70 C) [2]: 94.8% and 117% and 93.3%
- relative potency versus reference (non lyophilised, stored at -70 C) [3]: 94.6%
B1: Nanobody ALX0081sv1 (vWF0002) (VHH)
chain: DVQLVESGGGLVQPGGSLRLSCAASGRTFSYNPMGWFRQAPGKGRELVAAISRTGGSTYYPESVEGRFTISRDNAKRTVYLQMNSLRAEDTAVYYCAAAGVRAEQGRVRTLPSEYTFWGQGTQVTVSSAAAEVQLVESGGGLVQPGGSLRLSCAASGRTFSYNPMGWFRQAPGKGRELVAAISRTGGSTYYPESVEGRFTISRDNAKRTVYLQMNSLRAEDTAVYYCAAAGVRAEQGRVRTLPSEYTFWGQGTQVTVSS
